IntAct's records for PubMed 16996049

Target: par6_caeel par-6 (UniProt Q9NAN2)
Sequence (Q9NAN2 whole entry): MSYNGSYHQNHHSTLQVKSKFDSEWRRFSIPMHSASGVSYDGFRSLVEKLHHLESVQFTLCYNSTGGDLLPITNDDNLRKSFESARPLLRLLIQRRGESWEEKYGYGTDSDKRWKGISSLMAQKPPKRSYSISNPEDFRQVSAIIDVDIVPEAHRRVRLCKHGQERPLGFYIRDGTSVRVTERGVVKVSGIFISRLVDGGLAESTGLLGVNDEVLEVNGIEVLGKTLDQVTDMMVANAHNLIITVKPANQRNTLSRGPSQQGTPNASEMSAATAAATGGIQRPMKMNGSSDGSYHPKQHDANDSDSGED

Cell division control protein 42 homolog (Caenorhabditis elegans), Q05062 T17N, sequence (Q05062 whole entry T17N): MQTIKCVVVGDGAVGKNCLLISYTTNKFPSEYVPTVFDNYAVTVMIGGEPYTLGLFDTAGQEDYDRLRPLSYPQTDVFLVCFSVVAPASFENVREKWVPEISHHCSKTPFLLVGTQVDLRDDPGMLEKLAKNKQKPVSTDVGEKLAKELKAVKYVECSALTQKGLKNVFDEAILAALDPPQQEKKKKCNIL

Cell division control protein 42 homolog (Caenorhabditis elegans), Q05062 T17N
effect of a mutation on the interaction: disrupting interaction
